Target: Myc-UbcM2-His6 (mouse) (UniProt P52483)
Experiment: pull-down

Chain of Myc-UbcM2-His6 (mouse) (P52483 whole entry): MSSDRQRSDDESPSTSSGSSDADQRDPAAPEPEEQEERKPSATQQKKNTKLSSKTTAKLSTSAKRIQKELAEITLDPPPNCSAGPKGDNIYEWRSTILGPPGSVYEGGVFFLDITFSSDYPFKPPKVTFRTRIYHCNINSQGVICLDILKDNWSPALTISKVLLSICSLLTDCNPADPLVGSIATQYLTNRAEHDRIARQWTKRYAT
Chain of ^35S-RCBTB1 without the BTB domain and the C-terminal 87 residues (Q8NDN9 1-359): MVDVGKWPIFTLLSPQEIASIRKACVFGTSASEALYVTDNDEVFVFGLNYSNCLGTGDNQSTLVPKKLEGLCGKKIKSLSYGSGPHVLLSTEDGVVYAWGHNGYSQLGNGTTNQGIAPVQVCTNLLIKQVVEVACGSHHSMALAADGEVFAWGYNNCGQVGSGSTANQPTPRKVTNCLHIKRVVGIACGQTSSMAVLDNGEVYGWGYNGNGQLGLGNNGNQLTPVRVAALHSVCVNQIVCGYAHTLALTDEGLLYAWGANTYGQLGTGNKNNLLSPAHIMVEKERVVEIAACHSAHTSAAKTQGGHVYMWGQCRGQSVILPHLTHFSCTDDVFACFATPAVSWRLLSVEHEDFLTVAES

A decrease of binding against wild type RCBTB1 of 78% was found for “^35S-RCBTB1 without the BTB domain and the C-terminal 87 residues (from UniProt Q8NDN9 1-359) (domain or fragment)” in this work.

From article PMC2680606
